Results: the domain aggregation screens of Martell et al. (2025)

Assay: soluble fraction after stress (log2 fold change); higher = more stays soluble; pooled small domains, quantitative proteomics
Conditions: stress: 75 degC
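Further: 20 min heating vs room temperature control held 20 min.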

Compared with “HMLNMTLGDRIRSRREELRMSQEELATRLGYKSRSTIAKIESGENDLTQSKIVAFAEALSTTARWLLDY”, “HMLNVNDVIARNVRAARERKKLTLDGAAELTGVSRSMLAQIEKGEVNPTISVVWKIANGFKVSFTSLVEPQ” is lower in “soluble fraction (log2)” value: -1.88 for the first, -3.85 for the second.

Compared with “HMLPAGSDAILRYLSSGAVKGIGVATAARIVEKFGDETLRILEEEPGRLAEIKGITAAKAKAIGEAFAGQ”, “HMLPELIVTTKKGVTVTVTNGVITYSATSNGKATFTVPNYGKWTVSATINGTVISKVVDVTEAKQIPVLLG” is lower in “soluble fraction (log2)” value: -0.356 for the first, -1.07 for the second.

Going from “HMLPERIQTIVALIGHGRAMDLVREFGGQEIKFPAQEGNDTWAALVEVIGEAATRKLAAVFGGGQAPPVYI” to “HMLPGVPVVAGKTQSAATRILKAAGYAVSVVREEAFDGVTGTVLRTSPEAGSPLAPGSRVTLVVLQVV”, the “soluble fraction (log2)” value falls from -1.17 to -2.22.

Compared with “HMLPGWMETKFTANVSENTKNRTLEEHVLKMLNNKESAAEFIIFLHEKMMSVSGQVFQLDSR”, “HMLPIGSSREQVISSLNKMHQDYKEEGNFIYAGYFKQGLPLVPSPRISIALQFNETAHLEKIDATLNYV” is lower in “soluble fraction (log2)” value: -0.013 for the first, -0.343 for the second.

Going from “HMLPKLAEEYAIMEIRGKGENLTAKLINKGGDSFMVRNGTVLQTGHRIDEITQTYVRAEINGMKDYLYFA” to “HMLPLLAFDEKLNRLGYGGGFYDRTLASLAHKGNTITAIGIAYESQKMDKVPTGYFDRPLDGVLTPSGLIM”, the “soluble fraction (log2)” value rises from -0.645 to 0.0528.

Going from “HMLPNLWVMGPGDHLWRVAEVAMTKHLGRPVANHEIDGYWRRLVALNRESLIDPDNPDLVFAGQVIELPPF” to “HMLPQGKGTAMWLADHLAAASVTLDAGARKLLEDTLGEDMSRLPGVLRVLEATFGSDAGRLSAEDIEPFL”, the “soluble fraction (log2)” value rises from -2.59 to 0.075.

Compared with “HMLPRNKRIEIALTYIYGLGRHAATVVLKHANISPDKRTDDLDENDVRKLRDAIDANFRVEGDLRR”, “HMLPTVSITGHIFIRSGSPLNRIFVGEKIYHVGDHIDRDWVIESIGIDTLTIRSGTLSTQLPL” is lower in “soluble fraction (log2)” value: -1.55 for the first, -2.99 for the second.

Compared with “HMLPVFNYQVYRTHGLIYVYAKDNDSFDQIARSMGFKAKQLMKFNEVPEDFPLQAGDIVYLEKKKK”, “HMLPVLEIGTMIRIIRQPHFGTIARVVALPEELTKVESETLVRILDAEFDDGTRVRIPRANVEVIE” is lower in “soluble fraction (log2)” value: -2.35 for the first, -3.04 for the second.

First: HMLPYGDRRRHTDNTISRIRELAAALDDSGIADRLNQDGYVTPEGKPFTYAGVRWIRYKYDISGPYERN
Second: HMLQKVELSDNEKFIFDSLQKEQKMALLRLKELVNLSNKAWDVSVKNLTKQGLVKVTKIDEELLIEI
The “soluble fraction (log2)” value of the first is lower: -1.91 for the first, -0.845 for the second.

Going from “HMLQPQMKKFLNYESARNKMRPFGLSTRKEWRLFVDEGNRPADIPGDPYKKYKNKGWISWPHFLGK” to “HMLRDTTLLHIDSIVRDGSTAMANITVRDEGTDLEFPLQLRMERGDMGWQVVRIVNYRAYLEAVQKA”, the “soluble fraction (log2)” value rises from -1.42 to -0.351.

Going from “HMLRGKNALMSQLDQIQGIGPKRKRALFNHFLTLDAIKQADVETLRQAPGMNLPAAEQVYRHFHM” to “HMLRIIDYNRVVKDLNGLTPEQLLEKLAESFTVEDKGTEEYRPTELHNFSMYLGGHWYSLTAKPGTYDDND”, the “soluble fraction (log2)” value falls from -0.2 to -1.2.

First: HMLRMTRNRQKLVEVLMESGRPLSADEIREAAGFASTDLVTVYRNLEAFQSAGLLQRIPLENGSQLFELT
Second: HMLRNDEAVMLGRRLLNKHLQAFSVQIKDISHQRIHDLLDELELESLDHLLDDIGLGNRSVFLVAQKLLQ
The “soluble fraction (log2)” value of the first is higher: -0.46 for the first, -1.48 for the second.

Compared with “HMLRQRVFRIIQNNINSKNYFVYTKQILAELAGISMRSLNRTLSELQNDRLIIVDSGTIRLFT”, “HMLRVGASVTANGKYWYDSYGSKPFGTANNLSTTVTRIVPGNPYPIHIGSYGWLQESQIQIT” is higher in “soluble fraction (log2)” value: -3.12 for the first, -1.67 for the second.

First: HMLSDADLAAFREVFDLVDKDKSGAIEMEEVEELTKLLGLDLTRDEVELLVREIDKDGNGEVDFEEFLLVM
Second: HMLSDHGLNDRQIMVIAGLMNGGTVTVRSIESQYGVSLNTARADVKMLVDAGLLTETGREVNMKVYSWSGK
The “soluble fraction (log2)” value of the first is higher: 0.00598 for the first, -2.05 for the second.

First: HMLSDSDTLRDLYLSEQIWNVGDLIRVKGKNDDTHPSWEIIRRGTNYITAIDENYKSHKVWLHDIDI
Second: HMLSEKELLELLNRAKSNYNGITKKGIEAIALKYQGYSNVEIANLYHVKANHISAWISRARSRLKADY
The “soluble fraction (log2)” value of the first is lower: -1.3 for the first, 0.07 for the second.

“HMLSNLYAVLGVGRRATPDEITAAFDAWNARADAGEPIDDPLWERVRYAWDVLSSPSRRDLYDSLVDDATG” and “HMLSSREEKILNYLNEHQIITRKKAQELLETSQSTAGRVLKIMVDNGLIVQYGGSRSIWYELIK” are within 0.2 log units of each other in “soluble fraction (log2)” value: -1.74 for the first, -1.79 for the second.

Going from “HMLSTGIIIGDNVALRKTASSNGGIITRLDEGTVVKILASNVNAEWYQVEAGTKTGYVNRLYVNID” to “HMLSTGQLIRYYRKRAGMTQAELAEEVEMSEPGIRNYELGNRTPSKAQLSAIARGLGIEPEALI”, the “soluble fraction (log2)” value rises from -1.07 to -0.63.

Compared with “HMLSVKEQTYQIIKEKILNQEYPAGARININELAEELGISNSPIREALSLLEQQGLVISNRSSGATVT”, “HMLSVLKNVDVNSLSDDKIKTYWQQIQKSGYTLDEVEVLAEAQGISPLKIAAFKRRVQSLQQSLQT” is higher in “soluble fraction (log2)” value: -0.176 for the first, 0.311 for the second.

Going from “HMLSYDDTVVIGRNLLENAMKQKNIALEQLTDEVLARLAKELQVESVEAMYAGIGSGKRPSSFIINRLEAH” to “HMLSYFKIIKNGLVREGPASYYKIAENLEIGTIVQAFEKHDDWYLIKTHSGRIGWIVASDVTPQV”, the “soluble fraction (log2)” value falls from -0.75 to -3.62.

First: HMLTAHEAILKELRKMLLTGVLSPGEAVRPEIIGESFGVSAVPVREALRILEGEGQVLNRPHKGYVVT
Second: HMLTANPEEVVNRLTSAGEVGVRPLLDVDDPINAISTLLAIREDVYKQFAQFDTVGKSPSEIAHEIDDFL
The “soluble fraction (log2)” value of the first is lower: -0.904 for the first, 0.11 for the second.

“HMLTEERLQIITDTVNSRSSVTIAELSRILDVSPSTVKRDLNILAEAGKITKVRGGAIALGE” and “HMLTGDVDRYKDFFIALEKTSPVPIGFEKIIGGAHGYYHLEDKRIAIDEGMSELQTLKTAIHEIAHAKLHD” are within 0.2 log units of each other in “soluble fraction (log2)” value: -0.285 for the first, -0.312 for the second.

Compared with “HMLTGNTAKLFAHLVEVMNPKEFVKINRQTVIVEAGIPRGSVGAAIAKLLETGHLIANASGAYKLT”, “HMLTIEEYLTQLKKLMKDRDAATVRDALSDAEEHLRNAMAGEDPSRLDGIIEEYGSPEEIAAAYKIMEEHT” is lower in “soluble fraction (log2)” value: 0.278 for the first, -0.082 for the second.

First: HMLTIQNYFNQVKNIDWEQVPAALSKGHQLVEGASQNNWSAYHSNANIQRVVEAYFQKLNDYLEKN
Second: HMLTKGDRQSIRDSIIYMVGNAPRTLDYIVAESRYSEEDVIEAVRSLLSSHILSIDDSDMISLTRK
The “soluble fraction (log2)” value of the first is higher: -0.0425 for the first, -1.02 for the second.

Going from “HMLTNNYKNDKALRFAKNHGIHESNILKLVSLYENAPEKGFNAQSIAELLGITPRSASRILVKLLQHNLIR” to “HMLTPSRVLPYLFEDSFFIDTLSLEKDQVVGFLEYIDERLPPQDLMNKSKEFELIDYLINESEAYLSQ”, the “soluble fraction (log2)” value rises from -1.8 to -0.00122.

First: HMLTQEEITRRRGEILTAAMGVILRKGFLETSMREIAEAAGVGKSTLYDYFPSKDEIMIAYVVD
Second: HMLTRYNVNYYYNGEILQRRKVAEGSAAERITYLSGSLEVTDWYTEADLLRKYDFTEPVTGDLNLYAFARI
The “soluble fraction (log2)” value of the first is higher: -0.97 for the first, -1.42 for the second.

Compared with “HMLTSAQLAEIRQAVRAGQASVVEDLLKNGASPNFRMENGDTGFTYAVRADTPQVAEALLKSGKL”, “HMLTTIRKATVNDKTRIMEIYAYARQFMAEHGNPNQWKNNNPSEETIDNDIAKQEMYVIETDGEVHAVFY” is lower in “soluble fraction (log2)” value: -0.00532 for the first, -1.64 for the second.

“HMLVDWNYLEGKRGVTTTPLTPSGKARFGDDVVNVLSDGVLVSTGTPVRVLQVLGNRVLVEPLDG” and “HMLVGRDPQALILGSMPSEKSLEEDEYYAHPRNRFWSLMNWLLAGNKTRPAYKTGIEILSSHGIALWV” are within 0.2 log units of each other in “soluble fraction (log2)” value: -0.21 for the first, -0.358 for the second.

First: HMLVIMKTGASEEEIGRVIERIEGEGLSAHVSRGTERTVIGVIGQGVDVHRIAGVLGGMSGVESLVPIS
Second: HMLVLAENMDVIFTRRTLDDHVVVDYKTTIGEMVKNDEIKGENMDELISAVEKDGYELVSSTSGEIIFLND
The “soluble fraction (log2)” value of the first is higher: 0.0604 for the first, -1.01 for the second.

Going from “HMLVVEPSAELKTIIDKTASFVARNGPEFEARIKNEQNNAKFSFLQPNDPFNPYYRAKIVELGGTV” to “HMLVYQRLDKDNFIFEGKTLLNDIYKILDIESNYFEAIRGEADSIAGLLLEIAKSIPTINTEF”, the “soluble fraction (log2)” value falls from 0.0126 to -0.362.

Going from “HMLYEDVQVPNVRYWKSRDAKKQLEDLGLRVLTEHVNDAYIQSDQVIRTSPEIGDTLRTGDTVTLYVSDG” to “HMMKLSKRQEQIIAVVKEHQPVSGERISDILAVSRATLRSDLSFLTLSGILKASPKVGYTYES”, the “soluble fraction (log2)” value falls from 0.163 to -3.4.

First: HMMLVKKMLNGIMMKEITIKELADQYDVSTRTIQLKIKKLGYEWDSKESIYRYVGKESEPLDVDFSTLI
Second: HMMQEIKLEVINNEELRIDNYINLAGIGLSRSYIQKLIKDGVILVNGKEVKSSYKVSLGDIISVQIPDPG
The “soluble fraction (log2)” value of the first is lower: -3 for the first, -0.436 for the second.

Going from “HMMVIMRANATEPQIANVVAYVEKNGLNAHLSRGAERTVIGVVGDIRRVSKETFELMDGVDSVMRIS” to “HMNADKEALIAAAYRNSLIENFGTENVERYEERFNKWADKHDRQGMPMYPTIEKWMNEDNIA”, the “soluble fraction (log2)” value rises from -0.631 to 0.0631.

First: HMNADRIVGQTAKVIHPITPDEKGRVMVDNLDWAAAAQNRGESFEVGEEVSIVRIEGVTVYVQK
Second: HMNADTVIGKAGTVIEKIDNVAATGAVKIDGKVWTARSERDNITIDEGTLVKAMAIEGVKLIVEPVT
The “soluble fraction (log2)” value of the first is lower: -0.234 for the first, 0.139 for the second.

First: HMNAEGLIGREAVALTAVDAHGGRVRLGGEEWSARLSKENGGVSRLSVGDPVRVTDIDGAIAVVAP
Second: HMNAEQLAQVRRQKIGFIFQDFRLFPEYTVRDNILIPFYLDHRAPDEQMLHKLTGILGIAGKLHSRPAQL
The “soluble fraction (log2)” value of the first is higher: 0.118 for the first, -0.181 for the second.

With “HMNAKVVAPIPGTVLSIDIKVGDVIKIGDRLLVLEAMKMENNIASEKSGTVTAVHVKVGQQVLQNELMIEL” the “soluble fraction (log2)” value was -2.17.
